Laboratory results taken from PMC7141810, “UBP12 and UBP13 negatively regulate the activity of the ubiquitin-dependent peptidases DA1, DAR1 and DAR2” (eLife, 2020).

T1: GST-UBP13 (Arabidopsis thaliana, UniProt Q84WU2 1-1115)
T1 construct: UBP13, Arabidopsis thaliana, AT3G11910; called full-length; also called full-length GST-UBP13; source: E. coli BL21 (DE3), purified (Glutathione Sepharose 4B beads)
T1 sequence (looked up): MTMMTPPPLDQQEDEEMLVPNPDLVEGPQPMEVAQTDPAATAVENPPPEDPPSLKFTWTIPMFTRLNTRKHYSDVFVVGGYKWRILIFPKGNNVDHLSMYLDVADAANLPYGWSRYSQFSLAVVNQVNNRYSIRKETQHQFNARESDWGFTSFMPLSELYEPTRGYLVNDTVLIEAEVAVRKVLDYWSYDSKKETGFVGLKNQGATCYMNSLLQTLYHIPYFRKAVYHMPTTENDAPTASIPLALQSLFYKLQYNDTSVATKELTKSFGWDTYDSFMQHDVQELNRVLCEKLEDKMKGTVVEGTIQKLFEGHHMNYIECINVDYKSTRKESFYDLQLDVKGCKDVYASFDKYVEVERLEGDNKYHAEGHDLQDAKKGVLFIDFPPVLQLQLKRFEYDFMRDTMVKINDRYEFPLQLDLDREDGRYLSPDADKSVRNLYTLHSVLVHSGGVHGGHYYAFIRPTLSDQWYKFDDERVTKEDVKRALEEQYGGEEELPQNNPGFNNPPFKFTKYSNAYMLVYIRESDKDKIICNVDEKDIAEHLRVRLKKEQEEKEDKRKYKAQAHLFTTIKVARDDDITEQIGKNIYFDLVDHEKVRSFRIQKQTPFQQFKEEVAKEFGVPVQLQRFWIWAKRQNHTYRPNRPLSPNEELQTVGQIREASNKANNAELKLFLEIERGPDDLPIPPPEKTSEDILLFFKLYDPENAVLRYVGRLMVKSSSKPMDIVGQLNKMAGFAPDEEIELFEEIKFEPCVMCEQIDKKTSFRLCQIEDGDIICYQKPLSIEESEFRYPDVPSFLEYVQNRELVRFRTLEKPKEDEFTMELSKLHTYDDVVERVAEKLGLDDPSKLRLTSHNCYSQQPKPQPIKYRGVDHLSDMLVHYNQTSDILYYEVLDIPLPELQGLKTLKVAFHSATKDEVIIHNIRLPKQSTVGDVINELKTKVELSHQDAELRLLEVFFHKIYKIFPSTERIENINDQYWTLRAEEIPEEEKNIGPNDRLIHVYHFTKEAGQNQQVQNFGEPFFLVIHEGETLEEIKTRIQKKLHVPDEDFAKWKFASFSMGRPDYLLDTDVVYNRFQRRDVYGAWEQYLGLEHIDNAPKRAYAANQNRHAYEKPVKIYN

T2: GST-UBP12 (Arabidopsis thaliana, UniProt Q9FPT1 1-1116)
T2 construct: UBP12, Arabidopsis thaliana, AT5G06600; called full-length; also called full-length GST-UBP12; source: E. coli BL21 (DE3), purified (Glutathione Sepharose 4B beads)
T2 sequence (looked up): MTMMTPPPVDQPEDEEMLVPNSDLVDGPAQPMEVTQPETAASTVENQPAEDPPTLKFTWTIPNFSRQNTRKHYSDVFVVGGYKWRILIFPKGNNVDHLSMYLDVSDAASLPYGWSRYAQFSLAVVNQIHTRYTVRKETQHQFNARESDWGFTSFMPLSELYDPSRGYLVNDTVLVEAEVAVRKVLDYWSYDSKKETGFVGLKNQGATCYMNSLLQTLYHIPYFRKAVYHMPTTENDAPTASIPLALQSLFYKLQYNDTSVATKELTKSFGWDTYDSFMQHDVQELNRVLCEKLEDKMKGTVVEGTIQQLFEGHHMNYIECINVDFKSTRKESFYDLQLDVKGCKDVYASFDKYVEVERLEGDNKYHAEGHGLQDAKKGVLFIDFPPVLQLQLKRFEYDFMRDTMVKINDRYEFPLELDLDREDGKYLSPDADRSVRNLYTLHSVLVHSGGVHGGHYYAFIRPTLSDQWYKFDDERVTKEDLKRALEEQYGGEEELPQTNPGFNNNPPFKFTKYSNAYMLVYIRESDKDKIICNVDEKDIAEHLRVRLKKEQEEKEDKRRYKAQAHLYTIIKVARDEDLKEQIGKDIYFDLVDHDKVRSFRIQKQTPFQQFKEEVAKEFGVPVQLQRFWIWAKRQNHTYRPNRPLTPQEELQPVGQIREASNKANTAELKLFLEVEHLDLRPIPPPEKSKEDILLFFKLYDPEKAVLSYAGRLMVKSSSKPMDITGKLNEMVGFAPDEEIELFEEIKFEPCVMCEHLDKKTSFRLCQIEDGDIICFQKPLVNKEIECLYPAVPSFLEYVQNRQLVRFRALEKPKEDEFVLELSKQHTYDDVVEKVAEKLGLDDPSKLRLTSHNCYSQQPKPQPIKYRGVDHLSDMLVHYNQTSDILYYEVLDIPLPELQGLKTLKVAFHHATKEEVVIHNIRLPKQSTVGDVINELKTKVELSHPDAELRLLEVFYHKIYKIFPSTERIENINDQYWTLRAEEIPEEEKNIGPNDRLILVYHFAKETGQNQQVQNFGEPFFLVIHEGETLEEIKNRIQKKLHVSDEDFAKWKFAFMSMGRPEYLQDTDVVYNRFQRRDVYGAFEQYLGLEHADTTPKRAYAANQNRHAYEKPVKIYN


Tests used:
GST-UBP13 = molecular target: T1, GST-UBP13; assay: pull-down; in vitro; equal amounts of free GST, GST-UBP12 or GST-UBP13 as baits incubated with HIS-MBP-DA1, -DAR1 or -DAR2; purification with anti-GST beads; Western blot; conditions: both partners purified
GST-UBP12 = molecular target: T2, GST-UBP12; assay: as above; conditions: both partners purified

binding result (GST-UBP13)	binding result (GST-UBP12)	Binder
binds	binds	HIS-MBP-DA1 (natural protein, Arabidopsis thaliana, UniProt P0C7Q8 1-532, looked up, DA1, Arabidopsis thaliana, AT1G19270; source: E. coli BL21 (DE3), purified (NI-NTA agarose beads)) MGWFNKIFKGSNQRLRVGNNKHNHNVYYDNYPTASHDDEPSAADTDADNDEPHHTQEPSTSEDNTSNDQENEDIDRAIALSLLEENQEQTSISGKYSMPVDEDEQLARALQESMVVGNSPRHKSGSTYDNGNAYGAGDLYGNGHMYGGGNVYANGDIYYPRPITFQMDFRICAGCNMEIGHGRFLNCLNSLWHPECFRCYGCSQPISEYEFSTSGNYPFHKACYRERYHPKCDVCSHFIPTNHAGLIEYRAHPFWVQKYCPSHEHDATPRCCSCERMEPRNTRYVELNDGRKLCLECLDSAVMDTMQCQPLYLQIQNFYEGLNMKVEQEVPLLLVERQALNEAREGEKNGHYHMPETRGLCLSEEQTVSTVRKRSKHGTGKWAGNITEPYKLTRQCEVTAILILFGLPRLLTGSILAHEMMHAWMRLKGFRTLSQDVEEGICQVMAHKWLDAELAAGSTNSNAASSSSSSQGLKKGPRSQYERKLGEFFKHQIESDASPVYGDGFRAGRLAVHKYGLRKTLEHIQMTGRFPV
binds	binds	HIS-MBP-DAR2 (natural protein, Arabidopsis thaliana, UniProt Q0WSN2 1-528, looked up, DAR2, Arabidopsis thaliana, AT2G39830; source: E. coli BL21 (DE3), purified (NI-NTA agarose beads)) MDSSSSSSSSSPSSSYGVARVSHISNPCIFGEVGSSSSSTYRDKKWKLMKWVSKLFKSGSNGGGSGAHTNHHPPQFQEDENMVFPLPPSSLDDRSRGARDKEELDRSISLSLADNTKRPHGYGWSMDNNRDFPRPFHGGLNPSSFIPPYEPSYQYRRRQRICGGCNSDIGSGNYLGCMGTFFHPECFRCHSCGYAITEHEFSLSGTKPYHKLCFKELTHPKCEVCHHFIPTNDAGLIEYRCHPFWNQKYCPSHEYDKTARCCSCERLESWDVRYYTLEDGRSLCLECMETAITDTGECQPLYHAIRDYYEGMYMKLDQQIPMLLVQREALNDAIVGEKNGYHHMPETRGLCLSEEQTVTSVLRRPRLGAHRLVGMRTQPQRLTRKCEVTAILVLYGLPRLLTGAILAHELMHGWLRLNGFRNLNPEVEEGICQVLSYMWLESEVLSDPSTRNLPSTSSVATSSSSSFSNKKGGKSNVEKKLGEFFKHQIAHDASPAYGGGFRAANAAACKYGLRRTLDHIRLTGTFPL
binds	binds	HIS-MBP-DAR1 (natural protein, Arabidopsis thaliana, UniProt Q8W4F0 1-553, looked up, DAR1, Arabidopsis thaliana, AT4G36860; source: E. coli BL21 (DE3), purified (NI-NTA agarose beads)) MGWLTKILKGSSHKFSDGQCNGRYREDRNLEGPRYSAEGSDFDKEEIECAIALSLSEQEHVIPQDDKGKKIIEYKSETEEDDDDDEDEDEEYMRAQLEAAEEEERRVAQAQIEEEEKRRAEAQLEETEKLLAKARLEEEEMRRSKAQLEEDELLAKALQESMNVGSPPRYDPGNILQPYPFLIPSSHRICVGCQAEIGHGRFLSCMGGVWHPECFCCNACDKPIIDYEFSMSGNRPYHKLCYKEQHHPKCDVCHNFIPTNPAGLIEYRAHPFWMQKYCPSHERDGTPRCCSCERMEPKDTKYLILDDGRKLCLECLDSAIMDTHECQPLYLEIREFYEGLHMKVEQQIPMLLVERSALNEAMEGEKHGHHHLPETRGLCLSEEQTVTTVLRRPRIGAGYKLIDMITEPCRLIRRCEVTAILILYGLPRLLTGSILAHEMMHAWLRLNGYPNLRPEVEEGICQVLAHMWLESETYAGSTLVDIASSSSSAVVSASSKKGERSDFEKKLGEFFKHQIESDSSSAYGDGFRQGNQAVLKHGLRRTLDHIRLTGTFP
